# Experimental data reported in patent US20100075297A1, “PHOTOSENSITIVE POLYPEPTIDE AND METHODS OF THEIR PRODUCTION AND USE” (priority 2006, published 2010).
# “Also recorded” adds a separate entry of the source. *1 amine or outer side, *2 acyl side, *3 side chain or, on linkers, in order; H or OH if unused. Where a SMILES comes first, the peptide text is derived from it. [ ]: non-standard residue; d: D form. The star is where a group is joined. X2 = COc1cc(CN([C@@H](Cc2ccc(OP(=O)(O)O)cc2)C(=O)[*:2])[*:1])c([N+](=O)[O-])cc1OC; Gly(N-Dmnb) = COc1cc(CNCC(=O)O)c([N+](=O)[O-])cc1OC; X1 = CN(C)c1ccc(-c2cnc(-c3ccc(S(=O)(=O)*)cc3)o2)cc1; pY = N[C@@H](Cc1ccc(OP(=O)(O)O)cc1)C(=O)O; coumarin = not defined here; Dab = NCC[C@H](N)C(=O)O
# Assays:
# GST-Lck-SH2 [1] = biological target: GST-Lck-SH2 (UniProt P06239); experiment: fluorescence of dapoxyl peptide A with Lck SH2 domain
# Sequence of GST-Lck-SH2 (P06239 127-224 limits assumed): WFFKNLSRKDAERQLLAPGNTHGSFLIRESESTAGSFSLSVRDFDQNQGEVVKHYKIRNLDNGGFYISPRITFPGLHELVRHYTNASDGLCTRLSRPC
# GST-Lck-SH2 [2] = biological target: GST-Lck-SH2 (UniProt P06239); experiment: fluorescence, 3 µM peptide A with 5 µM GST-Lck-SH2 and 32 µM unphotolysed peptide 4, t=0 min
# α-chymotrypsin = biological target: T1, α-chymotrypsin (Bos taurus, UniProt P00766); experiment: Chymotrypsin continuous fluorescence substrate assay; assay type: biochemical
# T1 construct: purchased Fisher or Aldrich (general materials statement only)
# Experimental: The peptide 9 stock solution contained 5% DMSO and the assay solution contained less than 1% DMSO. The reaction was monitored on a Photon Technology QM-1 spectrofluorimeter at 30° C. using a λex=380 nm and a λem=460 nm.
# Assays were conducted using 25 μM light exposed caged peptide 10 in 50 mM Tris buffer (pH 8.0), and 100 mM NaCl, 5 mM CaCl2, and 0.01% Tween-20 to which α-chymotrypsin was added to initiate the reaction. The fluorescence of the solution was monitored on a Photon Technology QM-1 spectrofluorimeter at 30° C. at λex=380 nm and λem=460 nm. Caged peptide 10 was irradiated using an Oriel Mercury Arc Lamp (Model 69907) equipped with a 360 nm colored glass filter (300-400 nm band pass) and an IR filter for various time periods (0, 5, 10, 15, and 20 min).
# [3] = test system: H2N-Leu-Arg-Arg-Ala-N(DMNB)Ser-Leu-Gly-NH2 (12)
# [4] = test system: H2N-Leu-Arg-Arg-Ala-Ser-Leu-Gly-NH2 (11)
# [5] = test system: Ac-Gly-Gly-Gly-Phe-coumarin (9)
# [6] = test system: Ac-Gly-Gly-Gly-N(DMNB)Phe-coumarin (10)
# [7] = biological target: T2, cAMP-dependent protein kinase (PKA) catalytic subunit (Homo sapiens, UniProt P17612); experiment: PKA [γ-33P]ATP radioactive phosphorylation assay; assay type: biochemical
# T2 construct: made in house
# Experimental: PKA assays were performed in triplicate. 20 μL of a 30 μM solution of 12, which had been photolyzed for different time periods (5, 10, 15, 20, 25, 30 min), was added to each well of 96 multi-well assay plate containing 20 μL assay buffer [100 mM MOPS, 150 mM KCl, 12.5 mM MgCl2 and 150 μM cold ATP supplemented with 70-163 μCi/well [γ^−33P]ATP for radioactive detection]. 10 μL enzyme diluted buffer containing 100 mM MOPS (pH 7.1), 0.125 mg/mL bovine serum albumin, and 8 nM PKA catalytic subunit were added to initiate the reaction. Total reaction volume was 50 μL. After a 12-min incubation time at 30° C., 100 μL of 6% phosphoric acid was added to each well to stop the reaction (total volume: 150 μL). Following an additional 5 min incubation period at ambient temperature, 75 μL from each reaction well was transferred into each well of a Unifilter (P81 cellulose phosphate paper) assay plate. Each well was washed four times with 0.1% phosphoric acid in water. Scintillation solution was added to each well and ^33P-incorporation measured by scintillation counting with a MicroBeta™ TriLux & MicroBeta JET (Perkin Elmer). The formation of the photouncaged peptide was confirmed by ESI mass spectrometry.
# Assays were performed as described above, except that the enzymatic reaction was stopped at different time points (2, 4, 6, 8, 10, 12, 14 min) by adding 6% phosphoric acid.
# Lck SH2 domain [8] = biological target: T3, Lck SH2 domain (Homo sapiens, UniProt P06239); experiment: Photolysis of caged peptide 4, read out by displacement of sensor A from the Lck SH2 domain; assay type: binding
# T3 construct: made in house
# T3 sequence (P06239 127-224 limits assumed): as above
# Experimental: Experiments were conducted using 3 μM peptide A, 20 μM DTT, 5 μM GST-Lck-SH2 (in 10% glycerol), peptide 4 (32 μM) in 33.3 mM Tris buffer (pH 7.5) and a total assay volume 150 μL. The fluorescence of the solution was monitored on a Photon Technology QM-1 spectrofluorimeter at 30° C. at λex=395 nm and λem=535 nm. Caged peptide (4) was irradiated using an Oriel Mercury Arc Lamp (Model 69907) equipped with a 360 nm colored glass filter (300-400 nm band pass) and an IR filter for various time periods (0-30 min).
# An aliquot from each irradiation time period was added to the assay solution. A decrease in fluorescence intensity is indicative of displacement of the SH2 domain sensor A from the SH2 domain by uncaged peptide (6) (see FIGS. 7 and 8). An analogous set of experiments was performed with peptide 5. The formation of uncaged peptide 6 from caged peptides 4 and 5 was confirmed by analytical HPLC (comparison with the retention time of peptide 6 prepared by solid phase peptide synthesis) and by mass spectrometry.
# Lck SH2 domain [9] = biological target: T3, Lck SH2 domain; experiment: Competition assay with dapoxyl-labeled sensor peptide A for Kd at the Lck SH2 domain; assay type: binding
# Experimental: By contrast, the difference in affinity between 5 (43±10 μM) and 6 is somewhat more modest. The caged derivative 4 is converted to the high affinity form 6 upon photolysis. Longer photolysis times generate larger yields of the active peptide 6 (see “Experimental procedures” section below). The latter provides a straightforward means to deliver desired quantities of the active species.
# The competition assay schematically illustrated in FIG. 7 was employed to determine Kds for peptides 4, 5, and 6. Experiments were conducted using 3 μM peptide A, 20 μM DTT, 5 μM GST-Lck-SH2 (in 10% glycerol), and 33.3 mM of Tris buffer (pH 7.5) in a total assay volume of 150 μL. The fluorescence of the solution was monitored on a Photon Technology QM-1 spectrofluorimeter at 30° C. at λex=395 nm and λem=535 nm. The fluorescence of the peptide A solution was measured in the presence of variable concentrations of peptides 4, 5, or 6. Control assays in the absence of GST-Lck-SH2 were also performed at the same concentrations. The following Kdx values were obtained: peptide 4 (127±6 μM), peptide 5 (43±10 μM), and peptide 6 (2.6±0.2).
# and [St]=total [A], Fx=fluorescence at a given concentration of peptide X (i.e. 4, 5, or 6), Fmax=fluorescence in the absence of peptide X, F0=fluorescence in the absence of Lck-SH2 domain, Kd=binding constant of A/Lck-SH2 domain, [Pt]=total [Lck-SH2], [P]=uncomplexed [Lck-SH2], [Xt]=total [4, 5, or 6], [PX]=[4, 5, or 6/Lck-SH2 complex], [SP]=[A/Lck-SH2 complex], Kdx=dissociation constant of peptide 4, 5, or 6/Lck-SH2 domain complex.
# [10] = 10 nM α-chymotrypsin, Tris pH 8.0, 30° C.
molecule,measurement,setting,value
Ac-pTyr-Gly-Glu-Ile-Dab(Dapoxyl)-Ala-NH2 (A) (peptide),fold increase in fluorescence upon binding,GST-Lck-SH2 [1],10 fold
same,fold enhancement in fluorescence intensity relative to A in the absence of Lck-SH2 domain,GST-Lck-SH2 [2],4 fold
Ac-Gly-Gly-Gly-Phe-coumarin (Ac-GGGF-coumarin; reading uncertain; also: printed as Ac-Gly-Gly-Gly-Phe-coumarin) [peptide 9],Km,α-chymotrypsin; [10],6.3 ± 1.3 µM
same,Vmax,α-chymotrypsin; [10],7.2 µmol/min/mg
same,enhancement in fluorescence upon complete hydrolysis,"α-chymotrypsin; λex=380 nm, λem=460 nm",~6 fold
PKA catalytic subunit,"PKA-catalyzed phosphorylation, [γ-33P]ATP assay",[3],"In the absence of photolysis, peptide 12 fails to serve as a substrate"
same,"PKA-catalyzed phosphorylation, [γ-33P]ATP assay",[4],"photolysis of 12 generates the active substrate 11 (as demonstrated by mass spectrometry) that, upon addition of PKA, furnishes the phosphorylated product"
α-chymotrypsin,Km,[5],Km=6.3±1.3 µM
same,Vmax,[5],Vmax=7.2µmol/min-mg
same,"hydrolysis by chymotrypsin, continuous fluorescence assay",[6],the caged derivative 10 is essentially inactive as a chymotrypsin substrate
H2N-Leu-Arg-Arg-Ala-N(DMNB)Ser-Leu-Gly-NH2 [peptide 12],activity as PKA substrate (phosphorylation),[7]; in the absence of photolysis,fails to serve as a substrate; also recorded: not phosphorylated
same,activity as PKA substrate after photolysis,[7]; photolysis 5-30 min,generates the active substrate 11
"CC[C@H](C)[C@H](NC(=O)[C@H](CCC(=O)O)NC(=O)CNC(=O)[C@H](Cc1ccc(OP(=O)(O)O)cc1)NC(C)=O)C(=O)N[C@@H](CCNS(=O)(=O)c1ccc(-c2ncc(-c3ccc(N(C)C)cc3)o2)cc1)C(=O)N[C@@H](C)C(N)=O [peptide A, Ac-pTyr-Gly-Glu-Ile-Dab(Dapoxyl)-Ala-NH2] (Ac-[pY]GEI[Dab](X1)A-NH2)",enhancement in fluorescence intensity relative to A in the absence of Lck-SH2 domain,"Lck SH2 domain [8]; t=0 min photolysis, 3 μM A, 5 μM GST-Lck-SH2, 32 μM peptide 4",4 fold
"CC[C@H](C)[C@H](NC(=O)[C@H](CCC(=O)O)NC(=O)CNC(=O)[C@H](Cc1ccc(OP(=O)(O)O)cc1)NC(C)=O)C(=O)N[C@@H](CCNC(C)=O)C(=O)N[C@@H](C)C(N)=O [peptide 6, Ac-pTyr-Gly-Glu-Ile-Dab(Ac)-Ala-NH2] (Ac-[pY]GEI[Dab](Ac)A-NH2)",Kd,Lck SH2 domain [9],2.6 ± 0.2 µM
"CC[C@H](C)[C@H](NC(=O)[C@H](CCC(=O)O)NC(=O)CN(Cc1cc(OC)c(OC)cc1[N+](=O)[O-])C(=O)[C@H](Cc1ccc(OP(=O)(O)O)cc1)NC(C)=O)C(=O)N[C@@H](CCNC(C)=O)C(=O)N[C@@H](C)C(N)=O [peptide 4, Ac-pTyr-N(DMNB)Gly-Glu-Ile-Dab(Ac)-Ala-NH2] (Ac-[pY][Gly(N-Dmnb)]EI[Dab](Ac)A-NH2)",effect of photolysis of the caged peptide in the competition assay,"Lck SH2 domain [8]; irradiation 0-30 min, 300-400 nm band pass, 32 μM peptide 4",complete displacement of A from the Lck SH2 domain
same,Kd,Lck SH2 domain [9],127 ± 6 µM
"CC[C@H](C)[C@H](NC(=O)[C@H](CCC(=O)O)NC(=O)CNC(=O)[C@H](Cc1ccc(OP(=O)(O)O)cc1)N(Cc1cc(OC)c(OC)cc1[N+](=O)[O-])C(C)=O)C(=O)N[C@@H](CCNC(C)=O)C(=O)N[C@@H](C)C(N)=O [peptide 5, Ac-N(DMNB)pTyr-Gly-Glu-Ile-Dab(Ac)-Ala-NH2] (Ac-[X2]GEI[Dab](Ac)A-NH2)",Kd,Lck SH2 domain [9],43 ± 10 µM
Ac-Gly-Gly-Gly-N(DMNB)Phe-coumarin [peptide 10],activity as chymotrypsin substrate after photolysis,"α-chymotrypsin; photolysis 5, 10, 15, 20 min",increasing photolysis times converts increasing amounts of caged analogue 10 to the active substrate 9
same,activity as chymotrypsin substrate,"α-chymotrypsin; without photolysis, 25 μM caged peptide",essentially inactive; also recorded: not hydrolyzed
